In the RNAGym collection of RNA variant scans (doi:10.1073/pnas.2313332121):
Variants at the floor of the assay were thinned out.

B1: TPR 5TU (parent)
chain: GGAUCUUCUCGAUCUAACAAAAAAGACAAAUCUGCCACAAAGCUUGAGAGCAUCUUCGGAUGCAGAGGCGGCAGCCUUCGGUGGCGCGAUAGCGCCAACGUUCUCAACUAUGACACGCAAAACGCGUGCUCCGUUGAAUGGAGUUUAUCAUG

Variants of: B1
Experiment: polymerase ribozyme fitness, log enrichment relative to wild type (log ratio); higher = more active; in vitro selection for triplet polymerase activity
How it was run: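 Fitness measures genotype enrichment against wild-type enrichment on a logarithmic scale, with inverse-variance-weighted averaging of replicates. The logarithm is base 2, and genotypes were kept only with ≥10 input reads and ≥1 read per output in Illumina sequencing. The sequenced libraries came from one triplicate in vitro selection round, including frozen incubation at −7 °C, of PCR-built, transcribed mutant libraries of each subunit of a heterodimeric triplet polymerase ribozyme.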

Variant | polymerase ribozyme fitness (log ratio)
GGAUCUUCUCGAUCUAACAAAAAAGACGAAGCUGCAACAAAGCUUGAGAGCAUCUACGGAUGCAGAGGCGGCAGCCUUCGGUGGCGCGAUAGCGACAACGUUCUCAACUAUGACACGCAAAACGCGUGCUCCGUUGAAUGCAGUUUAUCAUG [A28G U31G C36A U56A C95A G141C] | -3.69
GGAUCUUCUCGAUCUAACAAAUAAGACAAAUCUGCCACAAAGCUUGAGAUCAUCUUCGGAUGCAGAGGCGGCAGCCUUCGGUGGCGCGAUAGCGCGAACGUUCUCAACUAUGACACGCAAAACGCGUGCUCCGUUGAAUGGAGUGUAUCAUG [A22U G50U C96G U145G] | -0.544
GGAUCUUCUCGAUCUAACAAAAAAGACAAAUCUGCCACAAAGCUUGAGAGCAUCUUCGGAUGCAGAGGCGGCAGCCUUCGGUAGCGCGAUAGCGCCUACGUUCUCAACUAUGACACGCAAAACGCGUGCUCCGUUGAAUGGAGUUUAUCAUG [G83A A97U] | 0.538
GGAUCUUCUCGAUCUAACAAAAAAGACAAAUCUGCCACAAAGCUUGAGAGCAUCUCCGGAUGCAGAGGCGGCAGCCUUCGGUGGCGCGAUAGCGCCAACGUUCUCAACUAUGACACGCAAAACGCGUGCUCCGUUGAAUGGAUUUUAUCAUG [U56C G143U] | -2.95
GGAUCUUCUCGAUCUAACAAAAAAGACUAAUCUGCCACAAAGCUUGAGAGCAUCUACGGAUGCAGAGGCGGCAGCCUUCGAUGGCGCGAUAGCGUCAACGUUCUCAACUAUGACACGCAAAACGCGUGCUCCGUUGAAUGGAGUUUAUCAUG [A28U U56A G81A C95U] | ≤ -4.2
GGAUCUUCUCGAUCUAACAAAAAAGACAAAUCUGCCACAAAGCUUGAGAGCAUCUUCGGAUGCAGAGGCGGCAGCCUUCGGUGGCGCGAUAGCCCCAACGUUCUCAACUAUGACACGCAAAACGCGUGCUCCGUUGAAUGGCGUUUAUCAUG [G94C A142C] | -1.37
GGAUCUUCUCGAUGUAACAAAAAAGACAAUUCUGCCACAAAGCUUGAGAGCAUCUUCGGAAGCAGAGGCGGCAGCCUUCGGUGGCGCGAUAACGCCAAAGUUCUCAACUAUGACACGCAAAACGCGUGCUCCGUUGAAUGGAGUUUAUCAUG [C14G A30U U61A G92A C99A] | ≤ -4.2
GGACCUUCUCGAUCUAAGAAAAAAGACAAAUCUGCCACAAAGCUUGAGAGCGUUUUCGGAUGCAGAGGCAGCAGCCUUCGGUGGCGCGAUCGAGCCAACGUUCUCAACUAUGACACGCAAAACGCGUUCUCCCUUGAAUGGAGUUUAUCACG [U4C C18G A52G C54U G70A A91C C93A G128U G133C U151C] | ≤ -4.2
GGAUCUUCUCGAUCUAACAAAAAAGACAAAUCUGCCACAAUGCUUGAGAGCAUCUUCGGAUGCAGAGGCGGCAGCCUUCGGUGGCGCGAUAGCGCCAACGUUCUCAACUAUGACACGCACAACGAGUGCUCCGUUGAAUGGCGUUUAUCAUG [A41U A120C C125A A142C] | -4.12
GGAUCUUCUCGAUCUAACAAAAAAGACAAAUCUGCCACAAAGCUUCAGAGCAUCUUCGGAUGCAGAGGCGGCAGCCUUCGGUGGCGUGAUAGCGCCAGCGUUCUCAACUAUGACACUCAAAACGCGUGCUCCGUUGAAUGGUGUUUAUCAUG [G46C C87U A98G G117U A142U] | ≤ -4.2
GGAUCUUCUCGAUCUAACAAAAAAGACAAAUCUGCCACAAAGCUUGAGAGCAUCUUCGGAUGCAGAGGCGGCAGCCUUCGGUGGUGCGAUAGCGCCAACGUUCUCAACUAUGACACGCAAAACGCGUGCUCCGUUGAAUGGAAUUUAUCAUG [C85U G143A] | 0.273
GGAUCUUCUCGAUCUACCAAAAAAGACAAAUCUGCCACAAAGCUUGAGAGCAUCAACGGAUGCAGAGGCGGCAGCCUUCGGUGGGGCGAUAGCGCCAACGUUCUCAACUAUGACGCGCAAAACGCGUGCUCCGUUGAAUGGAGUUUAUCAUG [A17C U55A U56A C85G A115G] | -3.1
GGAUCUUCUCGAUCUAACAAAAAAGAUAAAUCUGCCACAAAGCUUGAGAGCAUCUUCGGAUGCAGAGGCGGCAGCCUUCGGUAGCGCGAUAGCGUCAACGUACUCAACUAUGACACGCAAAACGCCUGCUCCGUUGAAUGGAGUUUAUCAUG [C27U G83A C95U U102A G126C] | -3.56
GGAUCUUCUCGAUCUAACAAAAAAGACAAAUCUGCCACAAAGCUUGUGAGCAUCUACGGAUGCAGAGGCGGCAGCCUUCGGUGGCGGGAUAGCGCCAACGUUCUCAACUAUGACCCGCAAAACGCGUGCUCCGUUGAAUGAAGUUUAUCAUG [A47U U56A C87G A115C G141A] | -3.84
GGAUCUUCUCGAUCUAACAAAAAAGACAAAUCUGCCACAAAGCUUGAGAGAAUCUUCGGAUGCAGAGGCGGCAGCCUUCGGUGGCGCGAUAGCGCCAACGUACUCAACUAUGACACGCAAAACGCGUGCUCCGUUGAAUGGAGUUUAUCAUG [C51A U102A] | -1.41
GGAUCGUCUCGAUCUAACAAAAAAGACAAAUCUGCCACAAAGCUUGAGAUCAUCUUCGGAUGCAGAGGCGGCAGCCUUCGGUGGUGCGAUAGCGCCAACGUUCUCAACUAUGACAUGCAAAACGCGUGCUCCGUUGAAUGGAGUUUAUCAUG [U6G G50U C85U C116U] | 0.202
GGAUCUUCUCGAUCUAACAAAAAAGACAAAUCUGCCACAAAGCUUGAGAGCAUCUUCGGAUGCAGAGGCGGCAGCCUUCGGUGGCGCGAUAGCGCCAACGUUCUCAACUAUGACACGCAAAACGCGUGCUCCGUUGAAUGGAGUUUAGCAAG [U148G U151A] | -3.95
GGAUCUUCUCGAUCUAACAAAAAAGACAAAUCUGCCACAAAGCUUGAGAGCAUCAUCGGAUGCAGGGGCGGCAGCCUUCGGUGGCGCGAUAUCGCCAACGUUCUCAACUAUGACACGCCAAACGCGUGCUCCGUUGAAUGGAGUUUAUCAUG [U55A A66G G92U A119C] | ≤ -4.2
GGAUCUUCUCGAUCUAACAAAAAAGACAAAUCUGCCACAAAGCUUGGGAGCAUCUACGGAUGCAGAGGCGGCAGCCUUCGGUGGCGCGAUAGCGCCAACGUUCUCAACUAUGACACGCAAAACGCGUGCUCCGGUGAAUGGAGUUUAUCAUG [A47G U56A U134G] | -2.17
